Laboratory results reported in patent CN110713539A.

Molecular target: CEA抗原 (癌胚抗原, Carcinoembrynio Antigen), soluble antigen (UniProt P06731)
Test: SPR (Biacore), antibody immobilised on chip, antigen in solution, 1:1 binding

Sequence of UniProt P06731 (P06731 35-685 limits assumed): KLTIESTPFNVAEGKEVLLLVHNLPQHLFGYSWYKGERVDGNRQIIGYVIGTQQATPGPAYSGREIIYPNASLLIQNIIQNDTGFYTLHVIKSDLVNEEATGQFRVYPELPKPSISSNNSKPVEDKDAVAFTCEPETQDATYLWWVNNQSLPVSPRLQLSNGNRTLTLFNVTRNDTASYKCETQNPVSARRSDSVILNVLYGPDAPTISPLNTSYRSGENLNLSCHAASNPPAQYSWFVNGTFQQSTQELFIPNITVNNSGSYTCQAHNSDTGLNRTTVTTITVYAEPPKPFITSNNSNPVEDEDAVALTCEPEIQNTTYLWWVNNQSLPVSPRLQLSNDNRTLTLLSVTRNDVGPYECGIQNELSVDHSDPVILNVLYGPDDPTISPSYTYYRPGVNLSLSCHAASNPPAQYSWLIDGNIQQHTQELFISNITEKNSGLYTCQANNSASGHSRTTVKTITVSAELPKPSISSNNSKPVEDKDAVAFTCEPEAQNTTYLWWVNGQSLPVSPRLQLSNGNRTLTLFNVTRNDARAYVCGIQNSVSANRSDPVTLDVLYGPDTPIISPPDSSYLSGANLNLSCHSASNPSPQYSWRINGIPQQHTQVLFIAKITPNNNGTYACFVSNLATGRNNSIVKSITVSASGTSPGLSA

Kd: 43.1 nM | koff: 0.0111 s⁻¹ | kon: 259000 M⁻¹ s⁻¹
B1: OLD-2ND-3-H6-scFv-mIgG1 (Fc fusion, part only; not given: linker and mouse Fc tag, not shown: a dimerising Fc or GST)
chain, part: ETTLTQSPGTLSLSPGERATLSCRASQSVNNNFLGWYQQRVGQAPRLLIYGASSRATGIPDRFSGSGSGTDFTLTISRLEPEDFAVYYCQQYGSSPLTFGGGTKVEIKMAQVQLQESGGGSVQPGGSLRLSCAASGFTFSSYAMSWVRQAPGKGLEWVSHISGSGGNTYYADSVKGRFTISRDNSKNTLYLQMNSLRAEDTAVYYCAKSWGSSNYGTFDIWGQGTVVTVSS
